What is called EC50 is the concentration that produces a half-maximal response. A low value points to greater potency.

This note sets out measurements from publication PMC4778250 (ACS Central Science, 2015).

The target in assay [1] is T1, mouse Class II MHC complex (Mus musculus C57BL/6 (H-2b; I-A b), UniProt P14434;P14483). Kind of assay: flow cytometry on cells. Background: Flow cytometry measures light scatter and fluorescence of single cells or particles in a stream.
Assay [2] deals with T1, mouse Class II MHC complex. Kind of assay: flow cytometry on cells. This is another data set of the same source.

T1 sequence (P14434 24-256, chain 1 of 2): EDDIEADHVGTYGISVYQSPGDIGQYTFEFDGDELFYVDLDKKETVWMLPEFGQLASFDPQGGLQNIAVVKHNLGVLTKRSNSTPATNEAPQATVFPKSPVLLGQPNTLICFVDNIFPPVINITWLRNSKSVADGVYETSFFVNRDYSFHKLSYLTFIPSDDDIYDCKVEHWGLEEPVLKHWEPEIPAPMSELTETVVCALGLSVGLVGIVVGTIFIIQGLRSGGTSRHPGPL
T1 sequence (P14483 28-265, chain 2 of 2): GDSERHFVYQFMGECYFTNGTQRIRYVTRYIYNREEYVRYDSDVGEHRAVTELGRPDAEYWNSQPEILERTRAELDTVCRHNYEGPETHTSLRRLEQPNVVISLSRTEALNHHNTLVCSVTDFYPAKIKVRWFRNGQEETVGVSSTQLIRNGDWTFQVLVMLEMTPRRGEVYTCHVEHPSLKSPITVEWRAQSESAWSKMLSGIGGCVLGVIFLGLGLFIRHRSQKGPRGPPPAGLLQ

B1: VHH4 (specific for human Class II MHC) (VHH)
VHH: QVQLQESGGGLVQAGGSLRLSCAASGSTLSSYGMGWYRQAPGKQREVVATISATGSISYADSVKGRFTISRDSAKNTMYLQLNSLTPEDTAVYYCNTIYRSTLYWGQGTQVTVSS
On to B1, for which the binding result in assay [1] is on record as “no binding”.

B2: VHH7 (anti-mouse Class II MHC single domain antibody) (VHH)
VHH: QVQLQESGGGLVQAGDSLRLSCAASGRTFSRGVMGWFRRAPGKEREFVAIFSGSSWSGRSTYYSDSVKGRFTISRDNAKNTVYLQMNGLKPEDTAVYYCAAGYPEAYSAYGRESTYDYWGQGTQVTVSS
Regarding B2, the EC50 in assay [2] lay within 55 to 60 nM.
